Data on one substance can be found in PMC12168090.

Broadly, the stoichiometry N is a count of units in the complex or per binding partner.

The target of the assay is NSP5, rotavirus RV Strain A RF, N-terminally Strep-tagged, full length (group A rotavirus, strain RF (RV Strain A RF)). As to the kind of experiment: native MS; full-length NSP5 in 200 mM ammonium acetate pH 6.9, 20 μM monomer; Q-Exactive UHMR, nESI.

As for “NSP5, rotavirus RV Strain A RF, N-terminally Strep-tagged, full length (natural protein)”, the stoichiometry N was found to be 10.
